± gives the uncertainty stated by the source.
Experiment: self-splicing fitness, log relative to wild type (ln ratio); higher = more splicing; Tetrahymena group I intron in knt gene, E. coli kanamycin selection, DiMSum; sequences stand for … in CUCUCU…GGAGGGAAAAGUUAUCAGGCAUGCACCUGGUAGCUAGUCUUUAAACCAAUAGAUUGCAUCGGUUUAAAAGGCAAGACCGUCAAAUUGCGGGAAAGGGGUCAACAGCCGUUCAGUACCAAGUCUCAGGGGAAACUUUGAGAUGGCCUUGCAAAGGGUAUGGUAAUAAGCUGACGGACAUGGUCCUAACCACGCAGCCAAGUCCUAAGUCAACAGAUCUUCUGUUGAUAUGGAUGCAGUUCACAGACUAAAUGUCGGUCGGGGAAGAUGUAUUCUUCUCAUAAGAUAUAGUCGGACCUCUCCUUAAUGGGAGCUAGCGGAUGAAGUGAUGCAACACUGGAGCCGCUGGGAACUAAUUUGUAUGCGAAAGUAUAUUGAUUAGUUUUGGAGUACUCGUGGUCG
Method in brief: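 The eight P1ex-region nucleotides of an intron in the knt kanamycin-resistance gene on pET-22b(+) were all randomised and the library put into E. coli BL21(DE3). Six replicate transformations were grown overnight at 37°C or 30°C on LB agar with or without 25 μg/mL kanamycin, together with 100 μg/mL carbenicillin, 50 μM IPTG and 0.2% rhamnose. Colonies were pooled and amplicon-sequenced on an Illumina HiSeq 2500. Fitness from DiMSum is the error-weighted combination of wild-type-normalised replicate fold changes, kanamycin over none.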

Sequence	self-splicing fitness (ln) (30 °C)	self-splicing fitness (ln) (37 °C)
CUUCAGCAAUAUUACGAUCU	-2.86 ± 0.39	-2.88 ± 0.35
CUUCAGCAAUAUUACGAUUA	-3.05 ± 0.41	-1.55 ± 0.22
CUUCAGCAAUAUUACGCCUU	-2.35 ± 0.15	-3.25 ± 0.25
CUUCAGCAAUAUUACGCGCC	-3.28 ± 0.3	-1.92 ± 0.24
CUUCAGCAAUAUUACGCGCU	–	-1.96 ± 0.46
CUUCAGCAAUAUUACGCGGC	-3.24 ± 0.36	-1.01 ± 0.19
CUUCAGCAAUAUUACGCGUU	-2.33 ± 0.12	-2.7 ± 0.21
CUUCAGCAAUAUUACGCUAU	-3.33 ± 0.37	-1.99 ± 0.25
CUUCAGCAAUAUUACGCUGG	-3.83 ± 0.21	-2.15 ± 0.14
CUUCAGCAAUAUUACGGAAA	-1.17 ± 0.18	-1.16 ± 0.15
CUUCAGCAAUAUUACGGAAG	-4.18 ± 0.28	-2.4 ± 0.2
CUUCAGCAAUAUUACGGAUG	-1.48 ± 0.069	-0.191 ± 0.1
CUUCAGCAAUAUUACGGCAG	-0.556 ± 0.12	-0.351 ± 0.14
CUUCAGCAAUAUUACGGCGU	-4.44 ± 0.24	-1.8 ± 0.17
CUUCAGCAAUAUUACGGCUC	-3.8 ± 0.37	-2.51 ± 0.35
CUUCAGCAAUAUUACGGCUG	-3.75 ± 0.34	-2.65 ± 0.47
CUUCAGCAAUAUUACGGUAG	-1.94 ± 0.12	-0.92 ± 0.14
CUUCAGCAAUAUUACGGUUA	-1.58 ± 0.19	-1.08 ± 0.2
CUUCAGCAAUAUUACGUAGU	-4 ± 0.16	-2.5 ± 0.19
CUUCAGCAAUAUUACGUCGU	-4.07 ± 0.14	-2.88 ± 0.12
CUUCAGCAAUAUUACGUGAC	-4.76 ± 0.46	-3.05 ± 0.37
CUUCAGCAAUAUUACGUGCC	-3.44 ± 0.31	–
CUUCAGCAAUAUUACGUGCU	-3.07 ± 0.12	-2.6 ± 0.13
CUUCAGCAAUAUUACGUGGU	-3.25 ± 0.21	-2.22 ± 0.24
CUUCAGCAAUAUUACGUGUG	-1.1 ± 0.061	-0.859 ± 0.076

Sequence	self-splicing fitness (ln) (30 °C)	self-splicing fitness (ln) (37 °C)
CUUGAGCAAUAUUACGAGGG	-3.25 ± 0.3	-2.37 ± 0.42
CUUGAGCAAUAUUACGAGUC	-4.15 ± 0.39	-1.33 ± 0.17
CUUGAGCAAUAUUACGCACU	-3.64 ± 0.39	-1.9 ± 0.44
CUUGAGCAAUAUUACGCGGU	-2.53 ± 0.33	-2.78 ± 0.48
CUUGAGCAAUAUUACGCUGC	-2.39 ± 0.49	–
CUUGAGCAAUAUUACGCUUA	-2.82 ± 0.29	-3.02 ± 0.37
CUUGAGCAAUAUUACGGAAG	-2.62 ± 0.25	-2.23 ± 0.28
CUUGAGCAAUAUUACGGCCA	-1.69 ± 0.23	-2.78 ± 0.36
CUUGAGCAAUAUUACGGGAG	-3.95 ± 0.22	-3.25 ± 0.26
CUUGAGCAAUAUUACGGGCU	–	-1.91 ± 0.25
CUUGAGCAAUAUUACGGUAG	-2.88 ± 0.11	-0.826 ± 0.094
CUUGAGCAAUAUUACGGUAU	-3.17 ± 0.2	-2.65 ± 0.26
CUUGAGCAAUAUUACGUACG	-1.44 ± 0.097	-0.683 ± 0.1
CUUGAGCAAUAUUACGUAGC	-3.2 ± 0.2	-2.4 ± 0.29
CUUGAGCAAUAUUACGUAUU	–	-3.02 ± 0.37
CUUGAGCAAUAUUACGUCAG	-1.6 ± 0.15	-0.671 ± 0.17
CUUGAGCAAUAUUACGUCGU	-3.97 ± 0.18	-2.75 ± 0.2
CUUGAGCAAUAUUACGUUAA	-2.47 ± 0.16	-2.6 ± 0.22
CUUGAGCAAUAUUACGUUUG	-3.1 ± 0.16	-2.26 ± 0.18
CUUUAGCAAUAUUACGAAAG	-3.18 ± 0.23	-1.7 ± 0.28
CUUUAGCAAUAUUACGAAAU	-2.94 ± 0.36	-1.99 ± 0.41
CUUUAGCAAUAUUACGAGAU	-3.83 ± 0.23	-2.57 ± 0.22
CUUUAGCAAUAUUACGCACA	–	-1.19 ± 0.35
CUUUAGCAAUAUUACGCGAU	-3.05 ± 0.24	-0.751 ± 0.17
CUUUAGCAAUAUUACGCGCC	-3.07 ± 0.37	-2.39 ± 0.45

Sequence	self-splicing fitness (ln) (30 °C)	self-splicing fitness (ln) (37 °C)
CUUUAGCAAUAUUACGCUAA	-4.31 ± 0.46	-3.2 ± 0.47
CUUUAGCAAUAUUACGCUAG	-3.45 ± 0.31	-2.11 ± 0.27
CUUUAGCAAUAUUACGGAAC	–	-1.93 ± 0.48
CUUUAGCAAUAUUACGGAAG	-3.17 ± 0.19	-2.8 ± 0.23
CUUUAGCAAUAUUACGGAUG	-0.333 ± 0.067	0.313 ± 0.098
CUUUAGCAAUAUUACGGCCG	-0.432 ± 0.19	-0.348 ± 0.29
CUUUAGCAAUAUUACGGCGU	-3.31 ± 0.47	-1.89 ± 0.26
CUUUAGCAAUAUUACGGGAG	-2.89 ± 0.18	-2.57 ± 0.21
CUUUAGCAAUAUUACGGGUU	-3.22 ± 0.34	-0.807 ± 0.19
CUUUAGCAAUAUUACGGUCU	-3.25 ± 0.2	-3.94 ± 0.36
CUUUAGCAAUAUUACGUACA	-2.89 ± 0.22	–
CUUUAGCAAUAUUACGUAUU	-3.07 ± 0.24	-1.34 ± 0.21
CUUUAGCAAUAUUACGUCAA	-2.48 ± 0.35	-2.67 ± 0.38
CUUUAGCAAUAUUACGUCGC	–	-1.58 ± 0.34
CUUUAGCAAUAUUACGUGAU	-2.8 ± 0.14	-1.05 ± 0.15
GAAAAGCAAUAUUACGAAGC	-3.19 ± 0.22	-2.65 ± 0.28
GAAAAGCAAUAUUACGACAC	-0.467 ± 0.14	-0.346 ± 0.17
GAAAAGCAAUAUUACGAGUC	-2.16 ± 0.15	-0.233 ± 0.1
GAAAAGCAAUAUUACGAUUC	-2.34 ± 0.17	-1.42 ± 0.15
GAAAAGCAAUAUUACGCAAG	-2.02 ± 0.11	-1.46 ± 0.14
GAAAAGCAAUAUUACGCCAC	-5.15 ± 0.38	-2.7 ± 0.36
GAAAAGCAAUAUUACGCGAA	-2.75 ± 0.2	-1.13 ± 0.18
GAAAAGCAAUAUUACGCGAG	-1.64 ± 0.058	-0.497 ± 0.068
GAAAAGCAAUAUUACGCUAU	-2.9 ± 0.21	-0.854 ± 0.2
GAAAAGCAAUAUUACGCUUA	-2.27 ± 0.14	-1.39 ± 0.14

Sequence	self-splicing fitness (ln) (30 °C)	self-splicing fitness (ln) (37 °C)
GAAAAGCAAUAUUACGGAUG	-2.63 ± 0.1	-1.14 ± 0.1
GAAAAGCAAUAUUACGGGCA	-0.677 ± 0.086	-0.191 ± 0.093
GAAAAGCAAUAUUACGGGUC	-2.09 ± 0.14	-2.58 ± 0.22
GAAAAGCAAUAUUACGGUAC	-1.94 ± 0.079	-1.11 ± 0.09
GAAAAGCAAUAUUACGUCGC	-1.38 ± 0.08	-0.835 ± 0.086
GAAAAGCAAUAUUACGUCGU	-0.785 ± 0.086	-1.29 ± 0.12
GAACAGCAAUAUUACGAACA	-0.908 ± 0.1	-0.166 ± 0.12
GAACAGCAAUAUUACGAUAG	-3.6 ± 0.14	-0.972 ± 0.094
GAACAGCAAUAUUACGAUGA	-0.145 ± 0.077	-0.155 ± 0.081
GAACAGCAAUAUUACGCAAC	-1.58 ± 0.097	-0.355 ± 0.13
GAACAGCAAUAUUACGCAAU	-1.53 ± 0.11	-0.769 ± 0.11
GAACAGCAAUAUUACGCACC	-0.638 ± 0.096	0.0849 ± 0.097
GAACAGCAAUAUUACGCAGC	-2.2 ± 0.29	-1.16 ± 0.23
GAACAGCAAUAUUACGCCAG	-3.71 ± 0.15	-3.05 ± 0.27
GAACAGCAAUAUUACGCCUA	-1.42 ± 0.086	-0.336 ± 0.087
GAACAGCAAUAUUACGCCUG	-1.85 ± 0.13	0.185 ± 0.13
GAACAGCAAUAUUACGCGCA	-0.367 ± 0.06	0.0257 ± 0.081
GAACAGCAAUAUUACGCGCG	-0.924 ± 0.064	-0.265 ± 0.085
GAACAGCAAUAUUACGCGGG	-1.87 ± 0.1	-1.37 ± 0.11
GAACAGCAAUAUUACGCUGA	-3.29 ± 0.2	-2.04 ± 0.14
GAACAGCAAUAUUACGCUUU	-2.71 ± 0.14	-1.93 ± 0.15
GAACAGCAAUAUUACGGAAC	-1.44 ± 0.1	-1.55 ± 0.13
GAACAGCAAUAUUACGGAUA	-2.51 ± 0.13	-1.28 ± 0.12

From the supplement of paper PMC7877785
